The source of these data is patent US20110189084A1, “Method for Treating Liver Disorders with Receptor Associated Protein (RAP) Peptide-Fucosidase Inhibitor Conjugates” (RAPTOR PHARMACEUTICAL INC., priority 2010, published 2011).

Bridge positions count the residues as written; N and C are the ends. Ends that are not written are not given here.

Data set [1] addresses T1, human liver alpha-L-fucosidase (Homo sapiens, UniProt P04066).
T1 sequence (P04066 32-466): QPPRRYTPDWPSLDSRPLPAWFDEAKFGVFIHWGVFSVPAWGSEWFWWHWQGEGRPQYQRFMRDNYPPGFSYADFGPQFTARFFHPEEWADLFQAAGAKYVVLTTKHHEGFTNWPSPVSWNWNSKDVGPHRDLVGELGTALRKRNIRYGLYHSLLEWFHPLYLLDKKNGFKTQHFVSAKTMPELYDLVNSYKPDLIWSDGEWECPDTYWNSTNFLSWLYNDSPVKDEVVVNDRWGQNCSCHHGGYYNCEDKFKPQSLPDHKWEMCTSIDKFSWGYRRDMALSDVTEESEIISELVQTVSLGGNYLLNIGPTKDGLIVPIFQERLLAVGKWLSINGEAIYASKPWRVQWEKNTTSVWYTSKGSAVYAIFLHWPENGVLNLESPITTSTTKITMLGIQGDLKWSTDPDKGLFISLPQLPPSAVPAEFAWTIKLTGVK
As to conditions: ref [12]; cited from earlier work.

The conditions of data set [2]: intravenously administered, rodent and feline species; cited from earlier work.
The conditions of data set [3]: cited from earlier work.
In data set [4] the target is T2, lysosomal fucosidase (Homo sapiens, UniProt P04066).
T2 construct: Fucosidase activity in 20 μL of each lysate sample was measured; endogenous in cells; host or cells: HepG2
T2 sequence (P04066 32-466): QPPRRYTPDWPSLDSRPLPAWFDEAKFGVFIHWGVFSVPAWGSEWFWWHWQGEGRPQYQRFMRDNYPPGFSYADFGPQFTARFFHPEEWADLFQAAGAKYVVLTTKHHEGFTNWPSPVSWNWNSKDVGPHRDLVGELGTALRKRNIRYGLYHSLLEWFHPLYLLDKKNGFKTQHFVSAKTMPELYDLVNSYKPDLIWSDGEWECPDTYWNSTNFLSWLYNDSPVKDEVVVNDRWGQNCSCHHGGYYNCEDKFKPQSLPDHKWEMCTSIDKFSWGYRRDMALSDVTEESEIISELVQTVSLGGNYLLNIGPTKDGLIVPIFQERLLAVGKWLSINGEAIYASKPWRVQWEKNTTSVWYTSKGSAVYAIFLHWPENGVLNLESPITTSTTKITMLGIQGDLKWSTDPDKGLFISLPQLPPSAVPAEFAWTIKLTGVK
Nature of the data set: fucosidase activity in lysates of treated HepG2 cells (4-MU-fucopyranoside). It counts as cell-based. As to conditions: 72 hours, versus buffer.
Procedure: HepG2 human hepatocellular carcinoma cells were seeded in 6-well tissue culture plates at 4×10^5 per well. […] Cells were then washed with cold PBS, scraped into a microfuge tube, pelleted and lysed. Total protein concentration was determined by Bradford assay for each sample and lysate volumes adjusted to 0.3 mg/mL. Fucosidase activity in 20 μL of each lysate sample was measured by adding 100 μL of 0.5 mM 4-MU-fucopyranoside with subsequent incubation at 37° C. for 30 minutes. Reactions were quenched with 130 μL of 600 mM citrate/carbonate buffer at pH 9. Released 4-MU was assayed in a fluorescence microplate reader (see Example 1 above). […] Duplicate sample activity values were averaged and plotted.

In data set [5] the target is T3, LRP1 (Homo sapiens, UniProt Q07954).
T3 sequence (Q07954 786-1165 limits assumed): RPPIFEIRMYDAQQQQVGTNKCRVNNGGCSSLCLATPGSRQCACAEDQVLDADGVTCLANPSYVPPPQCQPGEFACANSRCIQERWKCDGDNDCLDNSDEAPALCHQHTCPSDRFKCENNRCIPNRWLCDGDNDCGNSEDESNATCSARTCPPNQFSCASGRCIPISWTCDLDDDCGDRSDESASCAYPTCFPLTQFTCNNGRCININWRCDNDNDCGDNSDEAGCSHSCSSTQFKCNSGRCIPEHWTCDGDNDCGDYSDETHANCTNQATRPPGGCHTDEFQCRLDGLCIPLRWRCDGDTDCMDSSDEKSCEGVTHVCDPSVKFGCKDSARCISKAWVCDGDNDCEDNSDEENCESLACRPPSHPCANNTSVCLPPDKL
Particulars: read-out: affinity for LRP1; cited from earlier work.

`CCCCN1C[C@H](O)[C@@H](O)[C@H](O)[C@H](C(=O)O)C1` [Faz, (3R,4R,5S,6S)-1-butyl-4,5,6-trihydroxyazepane-3-carboxylic acid]: the “potency of fucosidase inhibition” value in data set [1] is on record as “low nanomolar range”.
Turning to “RAP: mature receptor associated protein, 323 amino acid peptide, SEQ ID NO: 1”, the toxicity entry in data set [2] is “no measurable toxicity”. For the same molecule, in data set [3] (injected RAP, intravenous), the circulating half-life entry is listed as “less than a minute”. Also, the “exogenous RAP accumulating in the liver” value in data set [3] (intravenous bolus injection of 30 picomoles, within 10 minutes) was “over 70%”. Moreover, the “accumulation in heart, brain, muscle or kidney” value in data set [3] (intravenous) is reported as < 1 % of injected dose.
Turning to `C[C@@H]1NC[C@@H](O)[C@H](O)[C@@H]1O` [L-deoxyfuconojirimycin], the inhibition (as a rule, the change of the read-out against control, counted positive when it falls) at 30 µM in data set [4] is more than 50%.
With “mRAP14c: RAP residues 250-309 with substitutions F250C, L308G and Q309C (CEAKIEKHNHYQKQLEIAHEKLRHAESVGDGERVSRSREKHALLEGRTKELGYTVKKHGC; disulfide 1-60 (inferred))”, the Kd in data set [5] is approximately 21 nM.

B1: mRAPc: RAP d3 with the modifications A242G, R314G, E241C and I315C (peptide)
chain: CGFREELKHFEAKIEKHNHYQKQLEIAHEKLRHAESVGDGERVSRSREKHALLEGRTKELGYTVKKHLQDLSGGC
Regarding B1, the Kd in data set [5] is approximately 10 nM.
